These results are taken from patent US20110312522A1, “METHODS OF DETECTION OF CANCER USING PEPTIDE PROFILES” (Sloan-Kettering Institute for Cancer Research, priority 2005, published 2011).

Ends that are not written are not given here.

A short description of data set [1]: Degradation of synthetic peptides added to fresh plasma, MALDI-TOF MS read-out. Format: in vitro ADME, human. The protocol:
In an effort to begin to understand the presence and roles of exoproteases, synthetic C3f was added to fresh plasma at a concentration close to that observed in serum. […] The resulting pattern was similar to the endogenous one observed in serum and also illustrated the disparate ion intensities for different rungs in the ladder.

The nature of data set [2]: Degradation of synthetic peptides in control serum and plasma (MALDI-TOF MS-based protease assay). Format: in vitro ADME, human. From the text: A large part of the human serum ‘peptidome’, as detected by MALDI-TOF MS, is generated ex vivo (i.e., after blood collection) by protease degradation of blood proteins. Endoproteases produce ‘founder peptides’ which are then pared down by exoproteases into ladder-like clusters. Panels of proteolytic activity in the blood contribute important cancer type-specific information, and that the resulting metabolic patterns have utility as surrogate markers for detection and classification of cancer. Degradation occurs during clotting. The use of exogenous synthetic peptides, identical to previously observed founder peptides, can be used to monitor cancer-specific proteolytic degradation in plasma or serum that contains proteases. Conditions in terms of time, temperature and added amounts of substrates can hereby be readily controlled. Coupled to a MALDI-based read-out, such analyses are blood “protease assays” to monitor the tumor-dependent activities inferred from prior studies. Simultaneous addition of non-degradable, exogenous reference peptides also enables relative quantitation of all rungs in the ladders.
The degradation conditions and times were studied for C3f and FPA in serum and plasma as described above. […] 2 picomoles [^13C-Leu]-labeled C3f was incubated for 30 min at RT with […] aliquots of serum from 20 different breast cancer patients and 20 control samples. […]

Regarding “FPA: synthetic fibrinopeptide A, N-terminally cleaved from fibrinogen by thrombin (ADSGEGDFLAEGGGVR; Fibrinopeptide A; UniProt P02671 20-35, looked up)”, in data set [1], the “exoproteolytic degradation in plasma (in words)” value is given as “followed a similar time course”. Also, in data set [2], the “degradation in control serum and plasma (in words)” value was “readily degraded”; the degradation time result is “up to 4 hours”.
On to “FPB: fibrinopeptide B, added to plasma like synthetic FPA (QGVNDNEEGFFSAR; ends and bridges not checked; UniProt P02675 31-44, looked up)”, for which, in data set [1], the “exoproteolytic degradation in plasma (in words)” value is listed as “completely degraded in just a few minutes”.
